Experimental data reported in paper PMC8262869, “The DnaK/DnaJ Chaperone System Enables RNA Polymerase-DksA Complex Formation in Salmonella Experiencing Oxidative Stress” (mBio, 2021).

B1: GST-DnaK (natural protein)
chain: not shown
notes: DnaK (Hsp70), Salmonella enterica serovar Typhimurium; dnaK cloned into BamHI and XhoI sites of pGEX-6P-1; source: E. coli BL21(DE3), purified (glutathione-Sepharose 4B)

Key:
DnaJ C186H-6×His = molecular target: T1, DnaJ C186H-6×His (Salmonella enterica serovar Typhimurium, UniProt P0A1G7 1-379, C186H); assay: pull-down; GST fusion (bait) on glutathione-Sepharose 4B beads, 50 mM Tris-HCl pH 7.5, 4°C, 2 h with C-terminally 6×His-tagged prey; wash 50 mM NaCl, elution 500 mM NaCl; anti-6×His immunoblot; settings: both partners purified
T1 construct: DnaJ, Salmonella enterica serovar Typhimurium; point mutant of full-length dnaJ in pET-22b(+); not shown: 6×His, C-terminal, kept

DnaJ ΔZn1-6×His = molecular target: T2, DnaJ ΔZn1-6×His (Salmonella enterica serovar Typhimurium, UniProt P0A1G7 1-379, C147S | C150S | C200S | C203S); assay: as above; settings: both partners purified
T2 construct: DnaJ, Salmonella enterica serovar Typhimurium; also called C147S C150S C200S C203S; not shown: 6×His, C-terminal, kept

DnaJ H33Q-6×His = molecular target: T3, DnaJ H33Q-6×His (Salmonella enterica serovar Typhimurium, UniProt P0A1G7 1-379, H33Q); assay: as above; settings: both partners purified
T3 construct: DnaJ, Salmonella enterica serovar Typhimurium; point mutant of full-length dnaJ in pET-22b(+); also called DnaJ H33Q recombinant variant; not shown: 6×His, C-terminal, kept

DnaJ C268A-6×His = molecular target: T4, DnaJ C268A-6×His (Salmonella enterica serovar Typhimurium, UniProt P0A1G7 1-379, C268A); assay: as above; settings: both partners purified
T4 construct: DnaJ, Salmonella enterica serovar Typhimurium; point mutant of full-length dnaJ in pET-22b(+); not shown: 6×His, C-terminal, kept

[1] = molecular target: E. coli holoenzyme RNA polymerase (E. coli, UniProt P0A7Z4 1-329; P0A8V2 1-1342); assay: cell-based or functional assay
GST-DnaK = molecular target: B1; assay: pull-down; GST fusion (bait) on glutathione-Sepharose 4B beads, 50 mM Tris-HCl pH 7.5, 4°C, 2 h with C-terminally 6×His-tagged prey; wash 50 mM NaCl, elution 500 mM NaCl; anti-6×His immunoblot; settings: both partners purified
GST-DnaK T199A = molecular target: T5, GST-DnaK T199A (Salmonella enterica serovar Typhimurium, UniProt Q56073 1-638, T199A); assay: as above; settings: both partners purified
T5 construct: DnaK (Hsp70), Salmonella enterica serovar Typhimurium; point mutant of dnaK in pGEX-6P-1; also called recombinant DnaK T199A variant; source: E. coli BL21(DE3), purified (glutathione-Sepharose 4B)

Row | Binder | binding result (DnaJ C186H-6×His) | binding result (DnaJ ΔZn1-6×His) | binding result (DnaJ H33Q-6×His) | binding result (DnaJ C268A-6×His) | livJ in vitro transcription (qRT-PCR): 5 μM oxidized DksA (GST tag removed), 5 nM RNA polymerase, 50 nM DnaJ, upon addition of 500 nM untagged DnaK [1] [fold] | binding result (GST-DnaK) | binding result (GST-DnaK T199A)
1 | oxidized GST-DksA (natural protein, cysteine residues oxidized (disulfide-bonded) by treatment with H2O2; positions not given, DksA, Salmonella enterica serovar Typhimurium; dksA cloned into BamHI and XhoI sites of pGEX-6P-1; For the in vitro transcription assays the GST tag was removed with PreScission protease and oxidation was with 1 mM H2O2; also called oxidized DksA; source: E. coli BL21(DE3), purified (glutathione-Sepharose 4B); treated with 100 μM H2O2 for 1 h at 37°C) MQEGQNRKTSSLSILAIAGVEPYQEKPGEEYMNEAQLSHFKRILEAWRNQLRDEVDRTVTHMQDEAANFPDPVDRAAQEEEFSLELRNRDRERKLIKKIEKTLKKVEDEDFGYCESCGVEIGIRRLEARPTADLCIDCKTLAEIREKQMAG | binds | binds | binds | binds | > 10 | – | –
2 | DnaJ-6×His (natural protein, Salmonella enterica serovar Typhimurium, UniProt P0A1G7 1-379, looked up, DnaJ, Salmonella enterica serovar Typhimurium; full-length dnaJ in NdeI and XhoI sites of pET-22b(+); also called wild-type DnaJ protein; C-terminally 6×His-tagged DnaJ; not shown: 6×His, C-terminal, kept) MAKRDYYEILGVSKTAEEREIKKAYKRLAMKYHPDRNQGDKEAEAKFKEIKEAYEVLTDAQKRAAYDQYGHAAFEQGGMGGGFGGGFNGGADFSDIFGDVFGDIFGGGRGRQRAARGADLRYNMDLTLEEAVRGVTKEIRIPTLEECDVCHGSGAKAGTQPQTCPTCHGSGQVQMRQGFFAVQQTCPHCQGRGTLIKDPCHKCHGHGRVEKSKTLSVKIPAGVDTGDRIRLAGEGEAGEHGAPAGDLYVQVQVKQHPIFEREGNNLYCEVPINFAMAALGGEIEVPTLDGRVMLKVPSETQTGKLFRMRGKGVKSVRGGAQGDLLCRVVVETPVGLSEKQKQLLKDLQESFGGPTGEKNSPRSKSFFDGVKKFFDDLTR | – | – | – | – | – | binds | binds
3 | B1 | – | – | binds | – | – | – | –
